According to the domain aggregation screens of Martell et al. (2025):

Experiment: soluble fraction after stress (log2 fold change); higher = more stays soluble; pooled small domains, quantitative proteomics
Conditions: stress: 50 degC
Outline: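 After stress at 50°C, the amount of each protein still soluble was measured. This was done on pooled custom libraries of small protein domains, using high-throughput quantitative proteomics. The figure given is a base-two log fold change and stands for aggregation propensity, with higher values meaning more protein stays in solution.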

| Sequence | soluble fraction (log2) |
| --- | --- |
| HMDRFRYYITEDSVQRGTYPYVDETTLKRFTSQLHKYEQGMISAYGYLEYSKPLTAEQIKDYTLMPSP | 0.0317 |
| HMDRFVLQLSKRYYDSSIEGVRKALAAFPVKTELLDQDRGGRPFYHENGKENEPVFRIMFHPEEGM | -0.542 |
| HMDRIISTPMPGRVVKIPVTEGEPVAKGATVITISAMKMESEYKSPIDGIVKKIHVSEGDNINANQPLIEI | -0.178 |
| HMDRKFFYEDQYQDYLGEELKVSFFDTDNKKTVRGTLSEVTPHGIKINLEQETQEIPFSSIIQANLI | 0.201 |
| HMDRPARDEAQSWLADVLADGPVPTAEIREEAEAAGLAWRTIQRARIALSVEPIRGDGRNAWLWQLPG | -1.42 |
| HMDRQIQITVAENEAGQRLDAFLAAKIPDMSRSYIQKLIEDGLILVNGQSTKGKVKTYSGMNIEVYMPE | 0.166 |
| HMDRRDEYHQHLLRLLLSGEIRDKDELQRRKVKLSGEYGLAGVPKNSETLALVPPDRLPEVLDILR | 0.065 |
| HMDRSIGDIIAELRDLSAEQVERVLAHQRETGVRFGEAAVALGYASKEDVLFALSQQFHYPYAPEE | -0.146 |
| HMDRSVTAAELRLAAMDLLARREHGSQELEAKLSRRFHKRHYDVELLRSVIEQLTVEGLLSDERFAVS | -0.154 |
| HMDRVTYPVSFNGKVRFQLELDAGMNAKEVETAALGHEKTAAQIEGKTIRKVIVVPGRIINIVV | -0.259 |
| HMDRWTPLVVAVLSRGSHRFGELRAAIGGITPKVLTDTLRSMERDGLITRDQAPGVPPRVDYALTPLGS | -1.12 |
| HMDSALKDDLNAFVKKLDVESQTLFMRRYFLGESVSSLASRFEMSEDNVGVKLFRIRAKLKKYLTGKGYD | -2.28 |
| HMDSAMMDLVMRVQLALFTKGYDVGIIDGKIGPKTRAQIKRYQSDNRLSSTGTLTTSLLTSLGIQ | -1.88 |
| HMDSATDRVALKELLNTLSARERTIITLRYFSDQTQTQVAKSLGISQVQVSRLENAILQRLRKL | -1.94 |
| HMDSDELEAFRLITSVNGVGPKLGIAILSEFTAEKLTVFIASGDAKALTAASGVGIKLAQRIVLELKDKVG | -0.199 |
| HMDSDFIKIEVLFNERNRLDLKAMMEASGFTDRGQFLSIMADLTGDENWDRNLDRGDIFYLPRSFTI | -1.22 |
| HMDSDIGQQLKILLTVGTFMPSTELKAIAQQFGMKKPTDLKEWVELESDTQRIKGNPTKGYWINEINDL | -0.562 |
| HMDSEEVYQMTKHKMDAAQISVAKRIHINLVLVKLLELHHLGYDLRHYHAQHHAFIKRLNLPEYFRFD | -1.66 |
| HMDSEKVLTNLKEELVLQLSNIEPYGYVPSQYWYSKVQRVQSVQELGKYVDGDLEAFVMKYAEDWESQK | -0.191 |
| HMDSGFMRTTQSYTVARLAEIFRLSGEDYLAVLREYDGWYQDLTSTKDLIRKGSDVPVPEGV | -1.61 |
| HMDSGLEQAKTAALENAELETSQVTFIKAELDYDDGKKVYEIEFVTSAMKYEYQVKADDFSILEMSKETIE | -0.39 |
| HMDSHSAESVRQRIKDMIAAEASKSILSDDTIVENLKSEGIEIARRTVAKYRESLNIPSSIQRRRIARSEA | -0.0963 |
| HMDSILMPGVVNKELREALAILKNEGIGWADPEYASSTVTRNYVISTDPVEGIELAPGQKVRLVVSLGPKP | -0.00706 |
| HMDSIQMKNNSILYYGNTAGYLDAKRNTAVVDPMFRTDEMESYLSEQKGLSVEWASGTYDRLT | 0.149 |
| HMDSLEIEEPITVKSLSAASGLKISDIIRKLMQEGIMATANQVIDREQAEAVLIDYNVDLVVKR | -0.248 |

| Sequence | soluble fraction (log2) |
| --- | --- |
| HMDSLNWVEKIINTLPEQQRLIIQMRDIEQYEFAEIAKILEMNETAIRVALSRARKTIREFMIKTH | -1.07 |
| HMDSLSLTELRIDSASPWIGNRISDFSPYAGELVIMIIRGEETIVPNGDTIILDKDLLVIYSS | -2.18 |
| HMDSNFNYELVGFRLDDMGLNSSVIVKRNNQEFVIQKGDLLENKYLLNSVTKKNINFSYLGKNYQI | -0.789 |
| HMDSNPLSEREQEVLQLVAKGASNQTIAEQLFLSNGTIRNYMTAIFNKLNANNRTDAVRIARENGW | -0.144 |
| HMDSPVEEWANRGLAYDPSLVTETMAKLYAKQGQIGLARKAFKRLALIYPEKSVYFAFQLKKLSNN | -1.63 |
| HMDSPVLTAEIKALIDKELEQNAVKLATGLKKQRKRATDIHDALIRQGHEVSYRTVVRYIRNKTAQTS | -0.061 |
| HMDSTSEILKVIQNIVKKEDPYHPLSDDKISNLLNDLDYQISRRTVAKYRDILTIPSSSKRRKL | -0.432 |
| HMDSVEMFSPILGMNANMDLDTLTQTRDKLLEKYKDDEQLIGLVNKTYDYFNEILLKQFLIEELEKNE | -0.153 |
| HMDSVFGVVTSSDGVKLRKEASTISKVLTVLPYGTEVDVDRIGSEWIRIVTDGGQKGYVSADYLAVREGER | 0.206 |
| HMDSVPEEQLRQLALDKAKEVKRWGQPVELAKMNAHDRRIIHINLQDDPEIETRSEGEGALKSVIISLKK | 0.172 |
| HMDSYADVLSDYRGKYKTNTISGLKGLRDKIREDMLAAADSLDFEKAALLRDEMNDLNKKIELKEKT | 0.505 |
| HMDTERLYAYAWQTHLKQFGLNISEEEIRQFVGVDDRIVHSFYAKTVPLDDFENTMFSLGEIIQQSL | -2.99 |
| HMDTFNVIARQEIDGILYEYKIMTVEDYKNQSPENLAVIYENIKAVMEQYDLSEDDADAILVDLLG | -1.12 |
| HMDTIRINSGSTVKEVAEYLGIPVPEVIKKLMSMGELATLTKTLSDDHIEVLAEEFEKKIKIVHVGEEAD | 0.0343 |
| HMDTITDSYTLEKGKLRAKVMEYELPESKKKEYSATFEYRGVYYHMIGIIEKADFEEILKNLHFP | -0.165 |
| HMDTIVVAARSIQARQTLTESDLRVEEQEIGAASDKYYTDIAEAVGLVSSRRLSPGQPILRTM | -0.28 |
| HMDTLKDFISGVSIVFENKYSVGDNVTIGDFRGDVIELGMKTTKIRAYTGEVLIIPNHLVEKVINH | -1.51 |
| HMDTLRARQEAAYRFLSAIAGDWRNYEEANRALFAGDAARFQDLTESWPADVRDHARHLASAAFSS | -0.543 |
| HMDTNAIIGLRIKNLRTEKKYTLKYLSENTGLSIGFLSQLERGMTSIAIDSLDKISKVLDVELSSFFT | -1.24 |
| HMDTNELIDRYVNEVGQHLPRKTRADIEMELRSLLLDTLEEQSGGEPTPKMAAEVLREFGHPEEIAAQYH | -0.0557 |
| HMDTRKKLEQIFKLFDKTGTGMVNIDEFKSVLKLFMEEIDEKFGNYFIAYFDENGDGKIEFEEFADVVL | -0.0635 |
| HMDTSAHEVLSAIRSIIEDEDKRHPLSDEAITSRLSQQGYDIARRTVAKYRERLGLPVARLRRE | -0.0213 |
| HMDVALEALDESDGAVRLQFSGALQTYLNDSTTAASLEAISKTFRAFYEAAGRPVDTLEVYAAGEPVT | 0.06 |
| HMDVDKQLDQLLAAMIPDKSLRQTIKTKAFNELVDNELADKDISSWTKQTMDVFMTRAEDMFGAM | -0.136 |
| HMDVEMLIDKYQLNDSEAEVLRFMKKNRQSLKTIGIRDVAKATYVSTATIINMAKKIGYSGYSELVFALGN | -0.0472 |

| Sequence | soluble fraction (log2) |
| --- | --- |
| HMDVNAQAGYDKLQSNQLDGARHDYEQALKTDPNNVDTLLALAAIAQRQGRSADADGYRQRAIDAD | -0.124 |
| HMDVNHVIIDHKGNSIQAIIDSIDLDNVYYQSKIKKESEVIDIDKVYFIFNDFDRVYHYDWSYYENL | -0.138 |
| HMDVNLSIRSGETIGIIGSTGSAKSTLVQLIPRLYDTTEGEVLVGGVNVKNYDLEALRNSVAMVLQKN | -0.066 |
| HMDVPNLVGEEIKDVRRTLRHFQLEVIGEGSKIVSQVPKHGQRLPENTTIRVYLN | 0.155 |
| HMDVPNLVGKTLEEAENELKKLNIRYNVTERADEAPKDTVIEQSPKPYEAMEPGTVVNLVISSGPA | 0.533 |
| HMDVQPHIYLRKLDQFWPADLHSLILYTLDGRRLWSADSGNIPALPHRASSLVILEATWDNGQRTRRKQFL | -1.63 |
| HMDVRKSISDLKALGLSDAAVTVYGTIGNKPVHIDKIVSELGIPVFKVLTALTQLEMKGLVTAMQGRMYVL | -1.01 |
| HMDVSASEVGLTGRQTDVLSLMVKGRSNRDIAELLGLSEGTVKIHITAIFKALGVASRTQALVAAARLGLK | -0.156 |
| HMDVSLVEQTQRDILEYISKNNSNAQLPKEQEFVGLLGVSRVVVREALSRLRALGIIETKRKKGTVVVVPE | -0.165 |
| HMDWVAYGAELRRRRLLAGWSVAELSRRTNLSTSIIYQVEQARTRLRPSQLTLAKLAAALGMP | -3.15 |
| HMDYAQAQRQAESAIALRPDVERLRLLLIYALQKQGKLREAEQAAADAIKSGLDTPALRQARANLRP | -0.264 |
| HMDYGSISFINWSIEVLSVIKTRLDRGDKIIDEVSGEKYTASSFEKFVRKNFSSYIFSQVYAEDHKK | -2.55 |
| HMDYHTIQTGDKGDEVLRLQQALAEYGYYEGDLDGRFGQQTRRAVERFQYSHGLTADGIAGRNTLSVLYD | -0.101 |
| HMDYIITHYPDNKRFETQVDGVVAFVQYRLSGDKLDIIHTIVPPAIGGRGIAAALVKYAYDYAIENGMK | -0.76 |
| HMDYKSKLQELVQTEKRTVEYKLVDESGPAHNKSFTFEVVISGIKYGSGTGASKKIAEQNAAKEALEKLA | -0.0871 |
| HMDYKSTLQELVQTVKKSVTYEVIDEEGPSHNKTFTSIVKIDGIVMGKGTAGSKKASEQEAARDALSKR | 0.271 |
| HMDYLYHNGKEIDQGSIMYKMEDYSDGIFELQSAKYADGTELDEKELEELESTQELIDWVMIDFVS | 0.42 |
| HMDYNSYGLTERELELVDYVLKGYSRKEMAEASGLKVNTIGSYMKKIYRKLNIHNRTELKERFI | -0.37 |
| HMDYNYLVFVTNTGPRSIAVEDLEMTVSDGKLVVSSGADGETFDLSTLTKMYFSDAAVVSINDV | -0.996 |
| HMDYQYILVDVKDRIATVTINRPEYSNAFARESYYEIADAMNTLGARDDVGVIVITGAGKHFSAGGDIKRF | -0.534 |
| HMDYYKILGLSTSATLDQIKKAFRQLAIEFHPDKNPNNPTAEDKFQRISEAYAVLSNPEKRAEYDRSY | -0.0923 |
| HMEAAETAVVTGTIVNIRSGPTLDFEAFAQVKQGDRLPVLDKFYNWYYVKLPSGVNGWISGQLVRIEQ | -0.25 |
| HMEAELNSLVKTYENMKPKAAAQVFEELDMDVLLDVVERMKEKKLAPILAQVTPTRAKEITYELTQRR | 0.0638 |
| HMEAFDYLGRRTRDLLERQGWTTVPLVRDAYLAVPGGERLLQVPGFGRKSLREVRRWLWLQIGDPRFE | -1.36 |
| HMEAIYKKNKNLIHTVIRDNFPFLIDTADYEDAFQEGSIGLIRAIDRFDDGLEYKFSSYAYTAIRNQIA | -0.409 |
